US20040120947A1

Molecular target: soluble His-tagged Apo-2L (UniProt P50591)
Test: KinExA; column head 'Affinity (pM)'

UniProt P50591, sequence (P50591 114-281 limits assumed): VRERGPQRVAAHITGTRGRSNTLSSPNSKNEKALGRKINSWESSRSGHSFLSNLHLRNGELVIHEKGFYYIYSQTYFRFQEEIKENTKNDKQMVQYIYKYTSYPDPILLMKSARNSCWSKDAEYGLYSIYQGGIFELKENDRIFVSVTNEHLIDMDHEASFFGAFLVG

Kd: 1 pM
Substance: DR5-IgG (Fc fusion)
